Molecular target: E2 protein of J6/JFH-1 (3×FLAG) virus particles (hepatitis C virus, J6CF strain (genotype 2a))
Assay: batch capture of virus particles on M2 antibody agarose, FLAG peptide elution, HCV Core ELISA of eluates

## anti-FLAG monoclonal antibody (M2 antibody, Sigma)
  purification efficiency: 5%

— US20100278865A1
